Details: Bacillus amyloliquefaciens, pH 6.3, Fluorescence, whole UniProt chain shown
[1] = 25 °C, GdnHCl, MES 450 mM, reversible: yes (100%)
[2] = Thermal, MES 50 mM, reversible: yes (>85%)

B1: Ribonuclease wild type, P00648 (protein)
chain: MMKMEGIALKKRLSWISVCLLVLVSAAGMLFSTAAKTETSSHKAHTEAQVINTFDGVADYLQTYHKLPDNYITKSEAQALGWVASKGNLADVAPGKSIGGDIFSNREGKLPGKSGRTWREADINYTSGFRNSDRILYSSDWLIYKTTDHYQTFTKIR
For B1, the denaturant m value [1] was 4.51 kcal/mol/M, the “denaturant midpoint (higher = more stable)” value [1] was 1.97 M and the unfolding free energy [1] was 37.2 kJ/mol. The Tm [2] was 53.9 °C and the “unfolding enthalpy (van 't Hoff)” value [2] was 523 kJ/mol.
